Data reported in PMC3524126, “Live-Cell Visualization of Intracellular Interaction between a Nuclear Migration Protein (hNUDC) and the Thrombopoietin Receptor (Mpl)” (PLoS ONE, 2012).

T1: Flag-Mpl-VN (full-length thrombopoietin receptor Mpl fused to the N-terminal half of Venus) (UniProt P40238 26-635)
T1 construct: Inserted between Flag and VN in pBiFC-VN173; also called pFlag-Mpl-VN; source: Cos-1, transiently transfected, in living cells; not shown: Flag, N-terminal, kept; Venus N-terminal fragment 1-173 (VN), C-terminal, kept
T1 sequence (looked up): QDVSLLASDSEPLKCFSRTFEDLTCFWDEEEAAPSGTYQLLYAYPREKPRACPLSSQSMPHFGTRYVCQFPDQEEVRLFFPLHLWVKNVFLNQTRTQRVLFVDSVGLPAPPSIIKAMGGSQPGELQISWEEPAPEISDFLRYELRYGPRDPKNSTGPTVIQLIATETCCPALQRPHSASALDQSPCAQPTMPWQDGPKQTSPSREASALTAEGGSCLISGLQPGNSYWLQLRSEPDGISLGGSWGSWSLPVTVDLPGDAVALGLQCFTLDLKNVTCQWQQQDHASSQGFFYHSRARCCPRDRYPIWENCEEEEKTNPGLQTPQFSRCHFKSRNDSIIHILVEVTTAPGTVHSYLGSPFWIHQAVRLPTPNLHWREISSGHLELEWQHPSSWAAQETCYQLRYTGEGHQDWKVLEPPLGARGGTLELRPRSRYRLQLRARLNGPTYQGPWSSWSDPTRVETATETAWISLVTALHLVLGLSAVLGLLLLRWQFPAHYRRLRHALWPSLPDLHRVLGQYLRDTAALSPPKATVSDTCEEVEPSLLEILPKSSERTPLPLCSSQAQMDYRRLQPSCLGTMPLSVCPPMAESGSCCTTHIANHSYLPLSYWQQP

B1: HA-hNUDC-VC (full-length human NUDC fused to the C-terminal half of Venus) (natural protein)
chain: not shown
notes: Cloned between HA and VC in pBiFC-VC155; also called pHA-hNUDC-VC; phNUDC-VC; source: Cos-1, transiently transfected, in living cells; not shown: HA, N-terminal, kept; Venus C-terminal fragment 155-238 (VC), C-terminal, kept
B2: HA-hNUDC(1-159)-VC (N-terminal half of hNUDC fused to the C-terminal half of Venus) (domain or fragment)
chain: not shown
notes: human NUDC (hNUDC), N-terminal half, residues 1-159; Cloned between HA and VC in pBiFC-VC155; also called pHA-hNUDC(1-159)-VC; source: Cos-1, transiently transfected, in living cells; not shown: HA, N-terminal, kept; Venus C-terminal fragment 155-238 (VC), C-terminal, kept

Target: T1, Flag-Mpl-VN (full-length thrombopoietin …)
Experiment: split reporter (BiFC, NanoBiT); Venus BiFC read by flow cytometry of Cos-1 cells, 12 h after transfection; 1x10^4 cells, Venus-positive cells against untransfected and empty-vector cells
Conditions: partners not purified

Row | Binder | fold increase of the Venus signal over untransfected Cos-1 cells [fold]
1 | B1 | 16.7
2 | B2 | 16.2
